B1: His-ADNP2 (natural protein, human, UniProt Q6IQ32 1-1131, looked up)
chain: MFQIPVENLDNIRKVRKKVKGILVDIGLDSCKELLKDLKGFDPGEKYFHNTSWGDVSLWEPSGKKVRYRTKPYCCGLCKYSTKVLTSFKNHLHRYHEDEIDQELVIPCPNCVFASQPKVVGRHFRMFHAPVRKVQNYTVNILGETKSSRSDVISFTCLKCNFSNTLYYSMKKHVLVAHFHYLINSYFGLRTEEMGEQPKTNDTVSIEKIPPPDKYYCKKCNANASSQDALMYHILTSDIHRDLENKLRSVISEHIKRTGLLKQTHIAPKPAAHLAAPANGSAPSAPAQPPCFHLALPQNSPSPAAGQPVTVAQGAPGSLTHSPPAAGQSHMTLVSSPLPVGQNSLTLQPPAPQPVFLSHGVPLHQSVNPPVLPLSQPVGPVNKSVGTSVLPINQTVRPGVLPLTQPVGPINRPVGPGVLPVSPSVTPGVLQAVSPGVLSVSRAVPSGVLPAGQMTPAGQMTPAGVIPGQTATSGVLPTGQMVQSGVLPVGQTAPSRVLPPGQTAPLRVISAGQVVPSGLLSPNQTVSSSAVVPVNQGVNSGVLQLSQPVVSGVLPVGQPVRPGVLQLNQTVGTNILPVNQPVRPGASQNTTFLTSGSILRQLIPTGKQVNGIPTYTLAPVSVTLPVPPGGLATVAPPQMPIQLLPSGAAAPMAGSMPGMPSPPVLVNAAQSVFVQASSSAADTNQVLKQAKQWKTCPVCNELFPSNVYQVHMEVAHKHSESKSGEKLEPEKLAACAPFLKWMREKTVRCLSCKCLVSEEELIHHLLMHGLGCLFCPCTFHDIKGLSEHSRNRHLGKKKLPMDYSNRGFQLDVDANGNLLFPHLDFITILPKEKLGEREVYLAILAGIHSKSLVPVYVKVRPQAEGTPGSTGKRVSTCPFCFGPFVTTEAYELHLKERHHIMPTVHTVLKSPAFKCIHCCGVYTGNMTLAAIAVHLVRCRSAPKDSSSDLQAQPGFIHNSELLLVSGEVMHDSSFSVKRKLPDGHLGAEDQRHGEEQPPILNADAAPGPEKVTSVVPFKRQRNESRTEGPIVKDEALQILALDPKKYEGRSYEEKKQFLKDYFHKKPYPSKKEIELLSSLFWVWKIDVASFFGKRRYICMKAIKNHKPSVLLGFDMSELKNVKHRLNFEYEP
notes: ADNP2, human, full length, amino acid residues 1-1131; pFast-Bac-derived vector; also called full-length human ADNP2; source: Trichoplusia ni High5 cells (baculovirus), coexpressed with Strep-HP1β; in lysate for the pull-down, Strep-Tactin eluate for SEC-MALS; not shown: His6, N-terminal, kept

Experiments:
His-CHD4 = molecular target: T1, His-CHD4 (human, UniProt Q14839 1-1912); assay: SEC-MALS; Strep-Tactin eluate, ~4-5 mg/mL, Superose 6 Increase 10/300 GL, 50 mM HEPES-OH pH 7.4, 150 mM NaCl, 0.5 mM TCEP; settings: both partners purified
T1 construct: CHD4, human, full length, amino acid residues 1-1912; pAC8-derived vector; also called full-length human CHD4; source: Trichoplusia ni High5 cells (baculovirus), expressed separately; in lysate for the pull-down, Strep-Tactin eluate for SEC-MALS; not shown: His6, N-terminal, kept
T1 sequence (Q14839 whole entry, the tested form may be a part): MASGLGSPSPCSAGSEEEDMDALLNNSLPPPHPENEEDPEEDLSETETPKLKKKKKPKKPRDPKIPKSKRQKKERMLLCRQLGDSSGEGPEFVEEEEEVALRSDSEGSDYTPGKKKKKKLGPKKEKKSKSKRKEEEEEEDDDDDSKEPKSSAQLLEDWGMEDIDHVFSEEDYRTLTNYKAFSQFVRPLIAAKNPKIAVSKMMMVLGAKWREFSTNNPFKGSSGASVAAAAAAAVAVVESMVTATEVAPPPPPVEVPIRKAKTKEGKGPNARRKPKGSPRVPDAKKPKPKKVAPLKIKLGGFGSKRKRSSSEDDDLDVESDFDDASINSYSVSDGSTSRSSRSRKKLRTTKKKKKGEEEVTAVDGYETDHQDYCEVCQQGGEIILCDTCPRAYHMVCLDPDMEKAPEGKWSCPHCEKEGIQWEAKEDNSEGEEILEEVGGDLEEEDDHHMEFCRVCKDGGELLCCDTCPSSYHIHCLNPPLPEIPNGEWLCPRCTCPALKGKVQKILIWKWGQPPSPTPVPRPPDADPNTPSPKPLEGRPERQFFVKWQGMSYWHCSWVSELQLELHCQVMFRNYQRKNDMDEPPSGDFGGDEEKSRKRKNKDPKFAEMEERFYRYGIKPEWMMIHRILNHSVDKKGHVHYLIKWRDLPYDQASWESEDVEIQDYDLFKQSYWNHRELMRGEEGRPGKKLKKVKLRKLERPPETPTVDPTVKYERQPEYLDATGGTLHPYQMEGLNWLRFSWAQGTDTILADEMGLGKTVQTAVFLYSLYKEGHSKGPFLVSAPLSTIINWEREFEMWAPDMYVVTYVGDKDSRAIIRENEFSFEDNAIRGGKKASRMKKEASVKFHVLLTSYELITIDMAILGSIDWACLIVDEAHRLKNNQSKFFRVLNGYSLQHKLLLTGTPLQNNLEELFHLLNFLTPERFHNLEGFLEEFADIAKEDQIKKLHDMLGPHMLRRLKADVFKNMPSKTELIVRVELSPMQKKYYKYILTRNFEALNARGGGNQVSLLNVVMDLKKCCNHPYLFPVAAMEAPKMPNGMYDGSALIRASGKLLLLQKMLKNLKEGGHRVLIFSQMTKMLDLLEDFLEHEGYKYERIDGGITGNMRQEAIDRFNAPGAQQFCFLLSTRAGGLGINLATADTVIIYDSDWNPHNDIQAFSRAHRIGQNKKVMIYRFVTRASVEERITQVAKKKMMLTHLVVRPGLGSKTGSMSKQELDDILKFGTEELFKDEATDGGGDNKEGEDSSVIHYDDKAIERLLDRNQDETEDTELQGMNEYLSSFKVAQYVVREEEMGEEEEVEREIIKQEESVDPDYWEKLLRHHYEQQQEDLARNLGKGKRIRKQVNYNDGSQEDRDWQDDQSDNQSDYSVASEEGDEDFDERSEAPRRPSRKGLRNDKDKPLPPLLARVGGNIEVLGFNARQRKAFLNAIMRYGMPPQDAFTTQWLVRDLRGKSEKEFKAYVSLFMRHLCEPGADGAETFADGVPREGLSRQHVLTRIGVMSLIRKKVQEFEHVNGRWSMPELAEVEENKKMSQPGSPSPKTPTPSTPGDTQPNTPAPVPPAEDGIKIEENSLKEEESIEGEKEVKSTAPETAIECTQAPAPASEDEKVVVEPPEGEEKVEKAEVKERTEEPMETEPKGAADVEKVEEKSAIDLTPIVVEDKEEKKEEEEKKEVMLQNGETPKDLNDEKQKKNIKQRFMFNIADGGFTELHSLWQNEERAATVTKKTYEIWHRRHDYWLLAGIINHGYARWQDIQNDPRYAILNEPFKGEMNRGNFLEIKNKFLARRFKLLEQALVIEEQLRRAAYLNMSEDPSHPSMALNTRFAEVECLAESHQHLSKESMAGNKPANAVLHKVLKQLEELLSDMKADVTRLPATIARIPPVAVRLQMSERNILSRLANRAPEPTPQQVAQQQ

His-ADNP2 = molecular target: B1; assay: pull-down; High5 cell pools (His-ADNP2 + Strep-HP1β coexpressed; His-CHD4 separately) mixed and lysed; cleared lysate over Strep-Tactin sepharose, 50 mM Tris pH 7.5, 300 mM NaCl, 0.1% Triton X-100; eluted with 2.5 mM desthiobiotin; SDS-PAGE and Coomassie staining; settings: partners not purified

Row | Binder | binding result (His-CHD4) | binding result (His-ADNP2)
1 | B1 | binds | 
2 | Strep-HP1β (natural protein, HP1β (CBX1), human, full length, amino acid residues 1-185; pFast-Bac-derived vector; also called full-length human HP1β; source: Trichoplusia ni High5 cells (baculovirus), coexpressed with His-ADNP2; in lysate for the pull-down, Strep-Tactin eluate for SEC-MALS; not shown: Strep tag II, N-terminal, kept) not shown | binds | binds

— paper PMC11293393, “ChAHP2 and ChAHP control diverse retrotransposons by complementary activities” (Genes & Development, 2024)
